In the DeepSol protein solubility set:

Assay: soluble on expression in E. coli; label from the status in PepcDB or PDB records

Soluble on expression in E. coli, not soluble:
MSLRKKGPVVLGKFWIYWCEKCNVPLIGDTCSIHGKDSVFKITLTPPGDVRFAFPKDIELIREVFREHYGVDLGELLEGKIVLLNKIPGEDDSYEIIFDGFIFGIISFNPRKLKWKPGLKEEGAKLLWEKFGKSLKKWVIIDRGAVEPVKNGANVLPVGVIEAEESIRRGDEVIVVSEDGEVVGVGIAKKDYNELINPQARGTGVKMKRKSKGSGKRLNGRKATIKDVIKANSAELEKKVREARNFMRSVAEKFKLPVAVAFSGGKDSLAVLGLAMEEFNNFTVFFNNTGIEFPETVEYVMKLREKYKNLNFIIADAGDAFWRAINIFSPPGMDYRWCCKVTKLGPITLAIRKHFPNGVLMFVGQRKFESFKRYKQGRVWKNKWVPNEIGAAPIFHWTALEVWLYIFSRGLEYNPLYEKGIDRIGCFLCPSQSLAEIQRLKEEKPELWEKWYRELEKWRKRLGLPREWIEYGFWRWRRVGRREKVLAKELGVEIPEERSWEVIKFDIKEEEGKYIVRPSTKLNLTRIREVAPILGNVEEGDNYLKAGENIFDKDKNVIISPSLEEAYSSVLLLKRAYECVGCGVCITSCPEEAIELDEKRKKIVVSLEKCTHCRECMNVCPLVVIKGVDNILEGHHHHHH
MGSDKIHHHHHHMEELFTYKEFIKMMQNYGIRHKKRKLRRNENVMTNSSSPNSVILLIKGYICSYTCESPETLLSVFEPGVFLSYSILEDLPPLVTNIALSEECIVYEYEKEDIEYALSLFPENFGFQYFFLKKIGRHLYYKALLNAKDHQEKLYYTIKYLGKLIGEKDGKGNIVLPPEITIKILIEYSTLSKAAFYRQRIRLIEEEILKPHKKTFLVPKKVVKHYEKQLTSI
MAHHHHHHMEPFTWLPAERYFHPLLNSIGAYQRYTYSLRAVCDAQRQKLLPGGDIEQNPGPIAVLQMNVSCLTPSKLATLMAQGADIIAIQETWKSSEQIASMHTGDHVLHAQSRIGKGSGVAVLVRKTLRSKRVPLTIPQHDTSLEVVVVQVALDQNRDLIVASTYMRPPPQVTQSFRRLVNCLPASSPLLLCGDFNMHHPQWEPFLESSPSEVAAEFLELCTDAGLTLVNTPGDITYARGTRERSCIDLTWSKHLTVSDCSASVSPLSDHYMLTFTLHQAFMDTIPSAPPSAPRTFYS

Soluble on expression in E. coli, soluble:
SKVTSLTACLVDQSLRLDCRHENTSSSPIQYEFSLTRETKKHVLFGTVGVPEHTYRSRTNFTSKYNMKVLYLSAFTSKDEGTYTCALHHSGHSPPISSQNVTVLRDKLVKC
MSNNNKYFTITKKQYKKMRRNKIELLFNVKVLKKKNGRQKFKILHEVENKPKIPIKIIEDQPESPKPLKPPKPPKPPKGPDNPEEPDSPEEPKETDQPGGPDNPNAGNKKMPTPEEYVTRKEFNEFKDSNNQRLTKIENKVDKLEVKVDKLAEIVQTQGEEIKELKVEQKAQSETLQLILKTLQKMNDRLDRMETRLDKIDSPKLEHHHHHH
MSQEKTGLQRPVLAQLSPIAIRGHSDEGVKKLRRRNDDGCFGEALFKGNAPARSLLFGDDACHRRVENLYLLDNNPTNWSGIKTNLKREIPLLQDPTETFARMNKVMHQTLKYVKEVESINFSSRGVIDFNGEVMEDHQRIFLSVCTSVFANFSFSCQMDVEKLLSFLMALFENYSKENAYHNALHAADSVQMLFLILREKPATLIFTENEVILAFLATLSLGFVHPGVSNAFLARIDHPLVLVYGDMTTQQSAGLTALLYLLNREENRFIDLFANSGTQPFSQFLREILVETVLGTAPRLRSSLLRDLEKVAVADAVELNDIPILLAAVVILADNALALRPHAQFVNLAGLMVTEWLREAYEEEQRGMDPLVPNLRKQIYENGLGMAVDYCKVWLRPLITNIRALVPQDLYDNMEGNTEAPSMSEIQDFLVHLDSSNERWNDGSVPVIDIIRRITMHATSLDRKASKRAILNAASNRAVSGFLSRSSSMCLSPNGARMSAEVSEKKINQQPSRCEHYFSFLRLYDTYEKEGRPAAEFAAQLVFLALQLNPEYIGRYTHKGIDVCSKEECEEIAELIMKKEEAPTTAEVIASPLRDGEQTDGFILRLMEMYAERDRERERNDTLNSATNPTSNLRRTLKCYNPVYGGMYSGKKS
MEYFNVGKIVNTQGLQGEMRVLSVTDFVEERFKKGQVLALFDEKNQFVMDIEIASHRKQKNFDIIKFKGMYHINDIEKYKGFTLKVAEDQLSDLKDGEFYYHEIIGLDVYEGEELIGKIKEILQPGANDVWVVERHGKRDLLLPYIPPVVLEVDLSNQRVQVELMEGLDDEDLEHHHHHH
